# In US11319551B2, “Methods and compositions for PPO herbicide tolerance in plants” (Monsanto Technology LLC, priority 2015, dated 2022):
# Where a chain is given by its changes, count along the chain named. Like-named read-outs stand apart in the source and are kept apart here.
# B1: R2N70: microbial HemY protoporphyrinogen oxidase, SEQ ID NO:3 (protein, listed as Bacillus subtilis)
# chain: MSDGKKHVVIIGGGITGLAAAFYMEKEIKEKNLPLELTLVEASPRVGGKIQTVKKDGYIIERGPDSFLERKKSAPQLVKDLGLEHLLVNNATGQSYVLVNRTLHPMPKGAVMGIPTKIAPFVSTGLFSLSGKARAAMDFILPASKTKDDQSLGEFFRRRVGDEVVENLIEPLLSGIYAGDIDKLSLMSTFPQFYQTEQKHRSLILGMKKTRPQGSGQQLTAKKQGQFQTLSTGLQTLVEEIEKQLKLTKVYKGTKVTKLSHSGSGYSLELDNGVTLDADSVIVTAPHKAAAGMLSELPAISHLKNMHSTSVANVALGFPEGSVQMEHEGTGFVISRNSDFAITACTWTNKKWPHAAPEGKTLLRAYVGKAGDESIVDLSDNDIINIVLEDLKKVMNINGEPEMTCVTRWHESMPQYHVGHKQRIKELREALASAYPGVYMTGASFEGVGIPDCIDQGKAAVSDALTYLFS
# B2: E. coli HemG: E. coli PPO enzyme HemG (protoporphyrinogen IX dehydrogenase; GenBank Accession No. WP_021498199), SEQ ID NO:76 (protein, listed as Escherichia coli)
# chain: MKTLILFSTRDGQTREIASYLASELKELGIQADVANVHRIEEPQWENYDRVVIGASIRYGHYHSAFQEFVKKHATRLNSMPSAFYSVNLVARKPEKRTPQTNSYARKFLMNSQWRPDRCAVIAGALRYPRYRWYDRFMIKLIMKMSGGETDTRKEVVYTDWEQVANFAREIAHLTDKPTLK
# B3: A. tuberculatus PPO: wild-type protoporphyrinogen oxidase from Amaranthus tuberculatus (WH), SEQ ID NO:80, negative control expressed in E. coli (protein, listed as Amaranthus tuberculatus)
# chain: MGNISEREEPTSAKRVAVVGAGVSGLAAAYKLKSHGLSVTLFEADSRAGGKLKTVKKDGFIWDEGANTMTESEAEVSSLIDDLGLREKQQLPISQNKRYIARDGLPVLLPSNPAALLTSNILSAKSKLQIMLEPFLWRKHNATELSDEHVQESVGEFFERHFGKEFVDYVIDPFVAGTCGGDPQSLSMHHTFPEVWNIEKRFGSVFAGLIQSTLLSKKEKGGENASIKKPRVRGSFSFQGGMQTLVDTMCKQLGEDELKLQCEVLSLSYNQKGIPSLGNWSVSSMSNNTSEDQSYDAVVVTAPIRNVKEMKIMKFGNPFSLDFIPEVTYVPLSVMITAFKKDKVKRPLEGFGVLIPSKEQHNGLKTLGTLFSSMMFPDRAPSDMCLFTTFVGGSRNRKLANASTDELKQIVSSDLQQLLGTEDEPSFVNHLFWSNAFPLYGHNYDSVLRAIDKMEKDLPGFFYAGNHKGGLSVGKAMASGCKAAELVISYLDSHIYVKMDEKTA
# B4: R1 N311: microbial HemY protoporphyrinogen oxidase, SEQ ID NO:16 (protein, listed as Bacillus atrophaeus)
# chain: MSDGKKHLVIIGGGITGLASAFYMEKEIREKNLPLSVTLVEASPRVGGKIQTARKDGYIIERGPDSFLERKKSAPELVEDLGLEHLLVNNATGQSYVLVNETLHPMPKGAVMGIPTKIAPFMSTGLFSFSGKARAAMDFVLPASKPKEDQSLGEFFRRRVGDEVVENLIEPLLSGIYAGDIDRLSLMSTFPQFYQTEQKHRSLILGMKKTRPQGSGQRLTAKKQGQFQTLKTGLQTLVEELENQLKLTKVYKGTKVTNISRGEKGCSIALDNGMTLDADAAIVTSPHKSAAGMFPDLPAVSQLKDMHSTSVANVALGFPQEAVQMEHEGTGFVISRNSDFSITACTWTNKKWPHSAPEGKTLLRAYVGKAGDESIVELSDNEIIKIVLEDLKKVMKIKGEPEMTCVTRWNESMPQYHVGHKQRIKKVREALAASYPGVYMTGASFEGVGIPDCIDQGKSAVSDVLAYLFG
# B5: R1N333: microbial HemY PPO, SEQ ID NO:17 in bacterial assay; truncated SEQ ID NO:21 in soybean (protein, listed as Bacillus atrophaeus)
# chain: B4 chain with G125R, R218Q, G470E
# Tests used:
# [1] = tested on: hemG knockout E. coli strain; type: cell-based
# [2] = tested on: transgenic soybean plants; assay: S-3100 herbicide injury of R0 transgenic soybean plants at eleven weeks; type: in vivo; settings: for tolerance to the PPO herbicide, R0 plants at eleven weeks: S-3100, injury rating compared with non-transgenic control (30% or above); for Tolerance score to S-3100 at 11 weeks (herbicide injury rating): R0 plants, seven days after treatment
# Protocol: (§1) The microbial HemY PPO enzymes were expressed in transgenic soybean plants, and the transgenic plants were analyzed for PPO herbicide tolerance. […] For plant transformation, the nucleotide sequences encoding the HemY PPO enzymes were codon optimized for dicot expression. This permitted the side-by-side comparison of the seven different HemY PPO enzymes with thirty-nine different targeting peptides using the same promoter and 3′UTR elements for gene expression
# (§2) The plant transformation constructs were used to transform soybean excised embryos (germplasm A3555) using A. tumefaciens and standard methods known in the art. Four hundred explants were inoculated for each construct resulting in twelve containers per construct. A sterile PPO herbicide solution was used for herbicide tolerance testing. The herbicide solution consisted of 0.3 g of S-3100 in crop oil concentrate (5.0 mL) and 495 mL of deionized water. This was filtered through a 0.45 micron Nalgene® Rapid-Flow™ Tissue Culture Filter Unit and Surfactant-Free Cellulose Acetate membrane filter unit (VWR, Radnor, Pa., USA). The resulting sterile solution was shaken before application.
# Plants in the non-sprayed containers corresponding to constructs having a high passing score of 2 and a few fails as negative controls were transplanted at approximately 7 weeks post transformation. The R0 plants were grown in a greenhouse under long-day nursery conditions (18 hr light at 80° F. then 6 hr dark at 74° F.) for approximately four weeks. At eleven weeks, the R0 plants were sprayed with two passes of the same herbicide solution (0.3 g of S-3100) described above. Herbicide injury ratings were collected seven days after treatment. Any injury rating of 30% or above was equivalent to non-transgenic soybean injury ratings. The results of the herbicide tolerance application at eleven weeks to the R0 plants are presented in Table 6, where n.d. indicates the analysis was not conducted.
# [3] = tested on: transgenic soybean plants; assay: S-3100 tolerance of transformed soybean plantlets at five weeks; type: in vivo; set-up: key to Tolerance score to S-3100 at 5 weeks: 0 for poor tolerance, high damage, low green coloration; 1 for some tolerance, average damage, moderate green coloration; 2 for good tolerance, low damage, high green coloration; settings: for tolerance to the PPO herbicide in high-throughput screening at five weeks: S-3100, over the constructs with different transit peptides; for Tolerance score to S-3100 at 5 weeks: day four post application
# Protocol: as §1, §2
# At five weeks post-transformation, four of the twelve plant containers per construct were sprayed with two passes of the sterile PPO herbicide solution. The treated plantlets were then enclosed in the container and received at least 15 hours of light exposure post spray each day for four days. At the end of day four post application of S-3100, the treated plantlets were photographed and scored on a visual scale of green coloration (green coloration was representative of healthy photosynthetic plant tissue as compared to photo-bleached tissue) versus damage. The scoring values were 0 for poor tolerance, high damage, low green coloration; 1 for some tolerance, average damage, moderate green coloration; and 2 for good tolerance, low damage, high green coloration. The results of herbicide application of S-3100 at five weeks is presented in Table 5, where n.d. indicates the analysis was not conducted.
# [4] = PPO enzyme assay, apparent Km for substrate; type: biochemical; settings: substrate protoporphyrinogen
# [5] = acifluorfen, flumioxazin, lactofen, or fomesafen, saturating amount
molecule,measurement,setting,value
B1,growth rate of hemG knockout E. coli strain in presence of PPO herbicide,[1]; acifluorfen and S-3100,slower
same,tolerance to acifluorfen and S-3100 compared with strain containing R2N30 or R2N40,[1]; acifluorfen and S-3100,much better
same,"tolerance to the PPO herbicide, R0 plants at eleven weeks",[2],did not provide tolerance
same,Tolerance score to S-3100 at 11 weeks (herbicide injury rating),[2]; targeting peptide TP2,30%
same,tolerance to the PPO herbicide in high-throughput screening at five weeks,[3],provided tolerance
same,Tolerance score to S-3100 at 5 weeks,[3]; targeting peptide TP2,2
same,Tolerance score to S-3100 at 5 weeks,[3]; targeting peptide TP3,1
same,Tolerance score to S-3100 at 5 weeks,[3]; targeting peptide TP4,0
same,Tolerance score to S-3100 at 5 weeks,[3]; targeting peptide TP6,0
same,Tolerance score to S-3100 at 5 weeks,[3]; targeting peptide TP8,0
same,Tolerance score to S-3100 at 5 weeks,[3]; targeting peptide TP16,0
same,Tolerance score to S-3100 at 5 weeks,[3]; targeting peptide TP21,0
same,Tolerance score to S-3100 at 5 weeks,[3]; targeting peptide TP31,1
same,Tolerance score to S-3100 at 5 weeks,[3]; targeting peptide TP33,0
B2,growth rate of hemG knockout E. coli strain in presence of PPO herbicide,[1]; [5],normal growth rates
same,Km,[4],1.6 µM
B3,sensitivity to PPO herbicides (negative control),[1]; all of the PPO herbicides,sensitive to all of the PPO herbicides
B4,growth rate of hemG knockout E. coli strain in presence of PPO herbicide,[1]; [5],did not grow
B5,growth rate of hemG knockout E. coli strain in presence of PPO herbicide,[1]; [5],did not grow
same,"tolerance to the PPO herbicide, R0 plants at eleven weeks",[2],did not provide tolerance
same,Tolerance score to S-3100 at 11 weeks (herbicide injury rating),[2]; targeting peptide TP8,35%
same,Tolerance score to S-3100 at 11 weeks (herbicide injury rating),[2]; targeting peptide TP9,35%
same,Tolerance score to S-3100 at 11 weeks (herbicide injury rating),[2]; targeting peptide TP14,35%
same,tolerance to the PPO herbicide in high-throughput screening at five weeks,[3],did not provide tolerance
same,Tolerance score to S-3100 at 5 weeks,[3]; targeting peptide TP2,0
same,Tolerance score to S-3100 at 5 weeks,[3]; targeting peptide TP3,0
same,Tolerance score to S-3100 at 5 weeks,[3]; targeting peptide TP4,0
same,Tolerance score to S-3100 at 5 weeks,[3]; targeting peptide TP6,0
same,Tolerance score to S-3100 at 5 weeks,[3]; targeting peptide TP7,0
same,Tolerance score to S-3100 at 5 weeks,[3]; targeting peptide TP8,0
same,Tolerance score to S-3100 at 5 weeks,[3]; targeting peptide TP9,1
same,Tolerance score to S-3100 at 5 weeks,[3]; targeting peptide TP11,0
same,Tolerance score to S-3100 at 5 weeks,[3]; targeting peptide TP12,1
same,Tolerance score to S-3100 at 5 weeks,[3]; targeting peptide TP13,0
same,Tolerance score to S-3100 at 5 weeks,[3]; targeting peptide TP14,0
same,Tolerance score to S-3100 at 5 weeks,[3]; targeting peptide TP15,0
same,Tolerance score to S-3100 at 5 weeks,[3]; targeting peptide TP16,0
same,Tolerance score to S-3100 at 5 weeks,[3]; targeting peptide TP17,0
same,Tolerance score to S-3100 at 5 weeks,[3]; targeting peptide TP18,0
same,Tolerance score to S-3100 at 5 weeks,[3]; targeting peptide TP19,0
same,Tolerance score to S-3100 at 5 weeks,[3]; targeting peptide TP21,0
same,Tolerance score to S-3100 at 5 weeks,[3]; targeting peptide TP22,0
same,Tolerance score to S-3100 at 5 weeks,[3]; targeting peptide TP23,1
same,Tolerance score to S-3100 at 5 weeks,[3]; targeting peptide TP24,0
same,Tolerance score to S-3100 at 5 weeks,[3]; targeting peptide TP25,0
same,Tolerance score to S-3100 at 5 weeks,[3]; targeting peptide TP26,0
same,Tolerance score to S-3100 at 5 weeks,[3]; targeting peptide TP27,1
same,Tolerance score to S-3100 at 5 weeks,[3]; targeting peptide TP28,0
same,Tolerance score to S-3100 at 5 weeks,[3]; targeting peptide TP29,1
same,Tolerance score to S-3100 at 5 weeks,[3]; targeting peptide TP30,0
same,Tolerance score to S-3100 at 5 weeks,[3]; targeting peptide TP31,1
same,Tolerance score to S-3100 at 5 weeks,[3]; targeting peptide TP32,0
same,Tolerance score to S-3100 at 5 weeks,[3]; targeting peptide TP33,0
same,Tolerance score to S-3100 at 5 weeks,[3]; targeting peptide TP34,1
same,Tolerance score to S-3100 at 5 weeks,[3]; targeting peptide TP36,1
